Laboratory results as given in the supplement of paper PMC7125110.
± gives the standard error. Fewer inactive variants are shown than the library holds.

B1: glmS ribozyme (parent)
chain: AUAAAAGCGCCAGAACUACAGAAAUGUAGUUGACGAGGAGGAGGUUUAUCGAAUUUUCGGCGGAUGCCUCCAAA

Legend:
Settings in all cases: with glucosamine-6-phosphate
glucosamine-6-phosphate [1] = variants of: B1; assay: self-cleavage kobs at 40 uM GlcN6P; higher = faster cleavage; RNA array
Procedure, shortened: (§1)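 The measurements used barcoded ribozyme variants on sequenced MiSeq chips, transcribed in situ by E. coli RNA polymerase and tracked at 37 °C with a hybridised Cy3 probe. Glucosamine-6-phosphate, 40 μM to 10 mM in HEPES/KCl/Mg(OAc)2 buffer, was flowed in while tiles were imaged over ~14 h. Baseline-normalised signals, also normalised to non-cleaving reference variants, gave per-tile medians that were fit to one- or two-exponential decays for kobs. kcat and KM resulted from weighted Michaelis–Menten fits across concentrations.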

glucosamine-6-phosphate [2] = variants of: B1; assay: self-cleavage kobs at 160 uM GlcN6P; higher = faster cleavage; RNA array
Procedure, shortened: as §1

glucosamine-6-phosphate [3] = variants of: B1; assay: self-cleavage kobs at 640 uM GlcN6P; higher = faster cleavage; RNA array
Procedure, shortened: as §1

glucosamine-6-phosphate [4] = variants of: B1; assay: self-cleavage kobs at 10000 uM GlcN6P; higher = faster cleavage; RNA array
Procedure, shortened: as §1

glucosamine-6-phosphate [5] = variants of: B1; assay: self-cleavage kobs at 2500 uM GlcN6P; higher = faster cleavage; RNA array
Procedure, shortened: as §1

Variant | self-cleavage kobs at 40 uM GlcN6P (glucosamine-6-phosphate [1]) [s⁻¹] | self-cleavage kobs at 160 uM GlcN6P (glucosamine-6-phosphate [2]) [s⁻¹] | self-cleavage kobs at 640 uM GlcN6P (glucosamine-6-phosphate [3]) [s⁻¹] | self-cleavage kobs at 10000 uM GlcN6P (glucosamine-6-phosphate [4]) [s⁻¹] | self-cleavage kobs at 2500 uM GlcN6P (glucosamine-6-phosphate [5]) [s⁻¹]
C34G U57G | < 1e-05 | < 1e-05 | < 1e-05 | < 1e-05 | 
A33U A48C | < 1e-05 | < 1e-05 | < 1e-05 | < 1e-05 | < 1e-05
C34A U56C A64C | < 1e-05 |  |  |  | 
C34G G41U U49G A52C A64C | < 1e-05 |  |  |  | 
G32A A33U A39G C61G A64C C68A | < 1e-05 |  |  | < 1e-05 | 
C34A A64G | < 1e-05 | < 1e-05 |  |  | < 1e-05
G32C A48C G60C | < 1e-05 |  |  |  | 
C34A C70G | < 1e-05 |  |  |  | < 1e-05
G32U G40C C61U C67A | < 1e-05 |  |  |  | 
A33C G63U G66U | < 1e-05 |  | < 1e-05 | < 1e-05 | 
A33G U56G | < 1e-05 |  | < 1e-05 | < 1e-05 | 
C34U A42G | < 1e-05 | < 1e-05 |  | < 1e-05 | 
A33C A52C C71A | < 1e-05 |  | < 1e-05 |  | < 1e-05
C34A U45G C68U C71A | < 1e-05 | < 1e-05 |  | < 1e-05 | < 1e-05
C34G A52C | < 1e-05 | < 1e-05 | < 1e-05 | < 1e-05 | < 1e-05
A33G A39G G60U | < 1e-05 |  |  | < 1e-05 | < 1e-05
A33U G43U C50G G51U | < 1e-05 |  |  |  | 
C34G G40U G63C C68U | < 1e-05 |  |  | < 1e-05 | 
A33C C71G | < 1e-05 |  |  |  | < 1e-05
A33G U65A | < 1e-05 |  | < 1e-05 | < 1e-05 | < 1e-05
U31C G41U C70G | 0.000329 ± 7e-05 |  |  | 0.00237 ± 0.00061 | 
A33G A42G U46G U56A | < 1e-05 |  | < 1e-05 | < 1e-05 | < 1e-05
C34A U57C | < 1e-05 | < 1e-05 |  | < 1e-05 | < 1e-05
G32U C50G C61A | 0.000162 ± 2.5e-05 |  |  | 0.000319 ± 4.2e-05 | 
